Assay results as given in the supplement of paper PMC7125110.
± gives the standard error. For some assays here: This sample holds only a part of the variants without activity.

B1: glmS ribozyme (parent)
chain: AUAAAAGCGCCAGAACUACAGAAAUGUAGUUGACGAGGAGGAGGUUUAUCGAAUUUUCGGCGGAUGCCUCCAAA

Key:
Settings in all cases: with glucosamine-6-phosphate
glucosamine-6-phosphate [1] = variants of: B1; test: kcat; higher = faster cleavage; RNA array
In short: (§1)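 Sequenced MiSeq chips were the platform: E. coli RNA polymerase transcribed barcoded ribozyme variants on them in situ, and a hybridised Cy3 probe tracked these at 37 °C. After glucosamine-6-phosphate (40 μM to 10 mM) in HEPES/KCl/Mg(OAc)2 buffer was flowed in, tiles were imaged over ~14 h. Signals normalised to baseline and to non-cleaving reference variants were reduced to per-tile medians and fit to one- or two-exponential decays to obtain kobs. kcat and KM were derived through weighted Michaelis–Menten fits across concentrations.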

glucosamine-6-phosphate [2] = variants of: B1; test: KM; higher = weaker cofactor use; RNA array
In short: as §1

glucosamine-6-phosphate [3] = variants of: B1; test: self-cleavage kobs at 40 uM GlcN6P; higher = faster cleavage; RNA array
In short: as §1

glucosamine-6-phosphate [4] = variants of: B1; test: self-cleavage kobs at 160 uM GlcN6P; higher = faster cleavage; RNA array
In short: as §1

glucosamine-6-phosphate [5] = variants of: B1; test: self-cleavage kobs at 640 uM GlcN6P; higher = faster cleavage; RNA array
In short: as §1

glucosamine-6-phosphate [6] = variants of: B1; test: self-cleavage kobs at 2500 uM GlcN6P; higher = faster cleavage; RNA array
In short: as §1

glucosamine-6-phosphate [7] = variants of: B1; test: self-cleavage kobs at 10000 uM GlcN6P; higher = faster cleavage; RNA array
In short: as §1

Variant | kcat (glucosamine-6-phosphate [1]) [s⁻¹] | KM (glucosamine-6-phosphate [2]) [µM] | self-cleavage kobs at 40 uM GlcN6P (glucosamine-6-phosphate [3]) [s⁻¹] | self-cleavage kobs at 160 uM GlcN6P (glucosamine-6-phosphate [4]) [s⁻¹] | self-cleavage kobs at 640 uM GlcN6P (glucosamine-6-phosphate [5]) [s⁻¹] | self-cleavage kobs at 2500 uM GlcN6P (glucosamine-6-phosphate [6]) [s⁻¹] | self-cleavage kobs at 10000 uM GlcN6P (glucosamine-6-phosphate [7]) [s⁻¹]
U31A | 0.0242 ± 0.0089 | 2460 ± 1100 | 0.000428 ± 7.9e-06 | 0.00127 ± 5.8e-05 | 0.00431 ± 0.00015 | 0.00997 ± 0.00043 | 0.0286 ± 0.0012
A12G U45A | 0.00242 ± 0.00064 | 3500 ± 1300 | 4.21e-05 ± 1.5e-05 | 0.000103 ± 1.6e-05 | 0.00041 ± 5.3e-05 | 0.000811 ± 0.00014 | 0.00207 ± 0.00031
G41U U56A C70A | 0.0279 ± 0.012 |  |  | 0.00226 ± 0.00043 | 0.0096 ± 0.0018 | 0.033 ± 0.0088 | 0.0192 ± 0.0059
C8A G37U C70A | 0.00017 ± 4.3e-05 |  | 7.9e-05 ± 2.3e-05 |  | 0.000214 ± 6.2e-05 | 0.000331 ± 0.00011 | 0.000139 ± 3.4e-05
C58A C68G | 3.84e-05 ± 1.3e-05 |  |  | 4.34e-05 ± 1.2e-05 | 6.18e-05 ± 1.1e-05 | 4.14e-05 ± 1.2e-05 | 
A20G G37C C58A | 1.09e-05 ± 2.8e-06 |  |  |  |  |  | 
U56C A64U | < 1e-05 |  | < 1e-05 |  | < 1e-05 |  | 
C16G U56C | 0.000431 ± 6.4e-05 |  |  |  |  | 0.000276 ± 4.5e-05 | 0.000354 ± 3.8e-05
G51A C61A | 1.66e-05 ± 3.1e-06 |  | < 1e-05 |  |  |  | 
G7U G13A | < 1e-05 |  | < 1e-05 |  |  | < 1e-05 | 
U30C G66A | 0.000173 ± 3.1e-05 | 1860 ± 840 |  |  | 3.92e-05 ± 1e-05 | 0.000153 ± 3.4e-05 | 0.00014 ± 1.9e-05
U49A U55G | 1.38e-05 ± 6.5e-06 |  |  |  |  |  | 
U54C C67A | 0.00598 ± 0.0014 | 1580 ± 590 | 0.000198 ± 3.2e-05 | 0.000315 ± 0.00012 | 0.00199 ± 0.00058 |  | 0.00521 ± 0.00071
U57A C68G | 3.34e-05 ± 1.3e-05 |  |  |  | 6.21e-05 ± 1.7e-05 | 4.55e-05 ± 1.7e-05 | 
A36U A64C | < 1e-05 |  | < 1e-05 | < 1e-05 |  | < 1e-05 | < 1e-05
G32U A53U | 0.000907 ± 0.00012 | 4580 ± 950 |  | 1.91e-05 ± 5.9e-06 | 0.000111 ± 6.5e-06 | 0.000361 ± 2.5e-05 | 0.000603 ± 3.5e-05
G29C U54G | 0.000894 ± 0.00025 |  | 6e-05 ± 1.7e-05 |  | 0.000289 ± 6.5e-05 | 0.00051 ± 0.00013 | 0.000918 ± 0.00014
